Measurements from PMC4549621, “Molecular basis for mid-region amyloid-β capture by leading Alzheimer's disease immunotherapies” (Scientific Reports, 2015).

Target: T1, amyloid-β peptide residues 12–28 (Aβ12–28), wild type
T1 construct: cut product of the amyloid precursor protein; numbers count on: the Aβ peptide (Asp1 of Aβ); also called Aβ peptide; mid-region of the Aβ peptide; source: bought: Anaspec (95% purity)
T1 chain: VHHQKLVFFAEDVGSNK
Experiment: crystal structure; Fab:Aβ12–28 mixed at molar ratio 1:2, dialysed in 10 mM HEPES pH 7.5; crystals from 16% w/v PEG 3350, 50 mM sodium citrate pH 4, 295 K; 2.4 Å, two complexes in the asymmetric unit
Details: both partners purified

binding result: binds
B1: solanezumab Fab fragment (recombinant, Asn55(H2)Ser) (Fab, V domains shown)
VH: EVQLVESGGGLVQPGGSLRLSCAASGFTFSRYSMSWVRQAPGKGLELVAQINSVGSSTYYPDTVKGRFTISRDNAKNTLYLQMNSLRAEDTAVYYCASGDYWGQGTLVTVSS
VL: DVVMTQSPLSLPVTLGQPASISCRSSQSLIYSDGNAYLHWFLQKPGQSPRLLIYKVSNRFSGVPDRFSGSGSGTDFTLKISRVEAEDVGVYYCSQSTHVPWTFGQGTKVEIK
notes: Fab heavy chain of solanezumab; glycosylation site removed by Asn55(H2)Ser; Fab light chain of solanezumab; Parent antibody is IgG1; only the Fab portion was made; source: FreeStyle 293-F cells, co-transfected, purified from supernatant (Ni-NTA, SEC)
